Measurements taken from US20240024501A1 (BONUM THERAPEUTICS, published 2024).

B1: AF4386 (other)
heavy 1: APTSSSTKKTQLQLEHLLLDLQMILNGINNYKNPKLTDMLTFEFYMPKKATELKHLQCLERELKPLEEVLNLAQSKNFHLRPRDLISNINVIVLELKGSETTFMCEYADETATIVEFLNRWITFCQSIISTLTGGGGSGGGGSGGGGSGGGGSQVQLVQSGAEVKKPGASVKVSCKASGDTFTRYYVHWVRQAPGQGLEWMGIINPSGGYASYAQKFQGRVTMTRDTSTSTVYMELSSLRSEDTAVYYCAAGLFIWGQGTLVTVSSAKTTAPSVYPLAPVCGDTTGSSVTLGCLVKGYFPEPVTLTWNSGSLSSGVHTFPAVLQSDLYTLSSSVTVTSSTWPSQSITCNVAHPASSTKVDKKIEPRGPTIKPCPPCKCPAPNAAGGPSVFIFPPKIKDVLMISLSPIVTCVVVDVSEDDPDVQISWFVNNVEVHTAQTQTHREDYNSTLRVVSALPIQHQDWMSGKEFKCKVNNKDLGAPIERTISKPKGSVRAPQVYVLPPPEEEMTKKQVTLTCMVTDFMPEDIYVEWTNNGKTELNYKNTEPVLDSDGSYFMYSDLRVEKKNWVERNSYSCSVVHEGLHNHHTTESFSRTPGK
heavy 2: QVQLVQSGAEVKKPGASVKVSCKASGDTFTRYYVHWVRQAPGQGLEWMGIINPSGGYASYAQKFQGRVTMTRDTSTSTVYMELSSLRSEDTAVYYCAAGLFIWGQGTLVTVSSAKTTAPSVYPLAPVCGDTTGSSVTLGCLVKGYFPEPVTLTWNSGSLSSGVHTFPAVLQSDLYTLSSSVTVTSSTWPSQSITCNVAHPASSTKVDKKIEPRGPTIKPCPPCKCPAPNAAGGPSVFIFPPKIKDVLMISLSPIVTCVVVDVSEDDPDVQISWFVNNVEVHTAQTQTHREDYNSTLRVVSALPIQHQDWMSGKEFKCKVNNKDLGAPIERTISKPKGSVRAPQVYVLPPPEKEMTKKQVSLTCLVKDFMPEDIYVEWTNNGKTELNYKNTEPVLKSDGSYFMYSKLTVEKKNWVERNSYSCSVVHEGLHNHHTTKSFSRTPGGGGSGGGSHHHHHH
light: DIQMTQSPSSLSASVGDRVTITCRASQSIGRYLAWYQQKPGKAPKLLIYSASNLETGVPSRFSGSGSGTDFTLTISSLQPEDFATYYCQQYNSFPVTFGPGTKVDIKRADAAPTVSIFPPSSEQLTSGGASVVCFLNNFYPKDINVKWKIDGSERQNGVLNSWTDQDSKDSTYSMSSTLTLTKDEYERHNSYTCEATHKTSTSPIVKSFNRNEC
B2: AF4387 (other)
heavy 1: APTSSSTKKTQLQLEHLLLDLQMILNGINNYKNPKLTDMLTFEFYMPKKATELKHLQCLERELKPLEEVLNLAQSKNFHLRPRDLISNINVIVLELKGSETTFMCEYADETATIVEFLNRWITFCQSIISTLTGGGGSGGGGSGGGGSGGGGSQVQLVQSGAEVKKPGASVKVSCKASGYTFTDYYMHWVRQAPGQGLEWMGIINPRAGYTSYALKFQGRVTMTRDTSTSTVYMELSSLRSEDTAVYYCTSGWDVWGQGTLVTVSSAKTTAPSVYPLAPVCGDTTGSSVTLGCLVKGYFPEPVTLTWNSGSLSSGVHTFPAVLQSDLYTLSSSVTVTSSTWPSQSITCNVAHPASSTKVDKKIEPRGPTIKPCPPCKCPAPNAAGGPSVFIFPPKIKDVLMISLSPIVTCVVVDVSEDDPDVQISWFVNNVEVHTAQTQTHREDYNSTLRVVSALPIQHQDWMSGKEFKCKVNNKDLGAPIERTISKPKGSVRAPQVYVLPPPEEEMTKKQVTLTCMVTDFMPEDIYVEWTNNGKTELNYKNTEPVLDSDGSYFMYSDLRVEKKNWVERNSYSCSVVHEGLHNHHTTESFSRTPGK
heavy 2: QVQLVQSGAEVKKPGASVKVSCKASGYTFTDYYMHWVRQAPGQGLEWMGIINPRAGYTSYALKFQGRVTMTRDTSTSTVYMELSSLRSEDTAVYYCTSGWDVWGQGTLVTVSSAKTTAPSVYPLAPVCGDTTGSSVTLGCLVKGYFPEPVTLTWNSGSLSSGVHTFPAVLQSDLYTLSSSVTVTSSTWPSQSITCNVAHPASSTKVDKKIEPRGPTIKPCPPCKCPAPNAAGGPSVFIFPPKIKDVLMISLSPIVTCVVVDVSEDDPDVQISWFVNNVEVHTAQTQTHREDYNSTLRVVSALPIQHQDWMSGKEFKCKVNNKDLGAPIERTISKPKGSVRAPQVYVLPPPEKEMTKKQVSLTCLVKDFMPEDIYVEWTNNGKTELNYKNTEPVLKSDGSYFMYSKLTVEKKNWVERNSYSCSVVHEGLHNHHTTKSFSRTPGGGGSGGGSHHHHHH
light: DIQMTQSPSSLSASVGDRVTITCRASQSISTWLAWYQQKPGKAPKLLIYAASSLDSGVPSRFSGSGSGTDFTLTISSLQPEDFATYYCQQSYSFPVTFGQGTKVEIKRADAAPTVSIFPPSSEQLTSGGASVVCFLNNFYPKDINVKWKIDGSERQNGVLNSWTDQDSKDSTYSMSSTLTLTKDEYERHNSYTCEATHKTSTSPIVKSFNRNEC
B3: PD1-IL2-R02-B05 (scFv)
scFv: QVQLVQSGAEVKKPGASVKVSCKASGYTFTNYYIHWVRQAPGQGLEWMGIINPRAGYTSYALKFQGRVTMTRDTSTSTVYMELSSLRSEDTAVYYCAGGWLDWGQGTLVTVSSASGGGGSGGGGSGGGGSHASDIQMTQSPSSLSASVGDRVTITCRASQSISSWLAWYQQKPGKAPKLLIYAASSLQSGVPSRFSGSGSGTDFTLTISSLQPEDFATYYCQQSFTMPITFGQGTRLEIK
B4: PD1-IL2-R02-A11 (scFv)
scFv: QVQLVQSGAEVKKPGASVKVSCKASGHTFTRYYMHWVRQAPGQGLEWMGIINPSGGYATYAQKFQGRVTMTRDTSTSTVYMELSSLRSEDTAVYYCASGWDVWGQGTLVTVSSASGGGGSGGGGSGGGGSHASDIQMTQSPSSLSASVGDRVTITCRASQSINSWLAWYQQKPGKAPKLLIYATSTLESGVPSRFSGSGSGTDFTLTISSLQPEDFATYYCQQSYSFPPTFGQGTKVEIK
B5: PD1-IL2-R02-C02 (scFv)
scFv: QVQLVQSGAEVKKPGVSVKVSCKASGYTFPRSYIHWVRQAPGQGLEWMGWINPHSGDTYYAQNFQGRVTMTRDTSTSTVYMELSSLRSEDTAVYYCARDTGLGYYYGSGDFDYWGQGTLVTVSSASGGGGSGGGGSGGGGSHASDIQMTQSPSSLSASVGDRVTITCRASQSISRYLNWYQQKPGKAPKLLIYTASSLQSGVPSRFSGSGSGTDFTLTISSLQPEDFATYYCQQANRFPLTFGPGTKVDIK
notes: cell-free expressed, V5-tagged
B6: PD1-IL2-R07-A09 (scFv)
scFv: QVQLVQSGAEVKKPGASVKVSCKASGYTFTSYYMHWVRQAPGQGLEWMGIINPSDGSTTYAQSFQGRVTMTRDTSTSTVYMELSSLRSEDTAVYYCASGWDVWGQGTLVTVSSASGGGGSGGGGSGGGGSHASDIVMTQSPDSLAVSLGERATINCKSSQSVFSSANNKNYLAWYQQKPGQPPKLLIYWASTRESGVPDRFSGSGSGTDFTLTISSLQAEDVAVYYCQQYFGTPVTFGGGTKVEIK
notes: as for B5
B7: PD1-IL2-R07-A04 (scFv)
scFv: QVQLVQSGAEVKKPGASVKVSCKASGYTFTDYYMHWVRQAPGQGLEWMGIINPRAGYTSYALKFQGRVTMTRDTSTSTVYMELSSLRSEDTAVYYCTSGMDVWGQGTLVTVSSASGGGGSGGGGSGGGGSHASDIQMTQSPSSLSASVGDRVTITCRASQSISTWLAWYQQKPGKAPKLLIYAASSLQSGVPSRFSGSGSGTDFTLTISSLQPEDFATYYCQQSYSFPVTFGQGTKVEIK
B8: PD1-IL2-R02-B07 (scFv)
scFv: QVQLVQSGAEVKKPGASVKVSCKASGDTFTRHYVHWVRQAPGQGLEWMGIINPSGGYASYAQKFQGRVTMTRDTSTSTVYMELSSLRSEDTAVYYCAAGLFIWGQGTLVTVSSASGGGGSGGGGSGGGGSHASDIQMTQSPSSLSASVGDRVTITCRASQSIGRWLAWYQQKPGKAPKLLIYSASNLETGVPSRFSGSGSGTDFTLTISSLQPEDFATYYCQQANSFPVTFGPGTKVDIK
B9: PD1-IL2-R02-C03 (scFv)
scFv: QVQLVQSGAEVKKPGASVKVSCKASGYTFPRYHIHWVRQAPGQGLEWMGMINPSGGTTTYAQKFQGRVTMTRDTSTSTVYMELSSLRSEDTAVYYCARDTGLGYYYGSGDFDYWGQGTLVTVSSASGGGGSGGGGSGGGGSHASDIQMTQSPSSLSASVGDRVTITCRASQSISSWLAWYQQKPGKAPKLLIYAASSLQSGVPSRFSGSGSGTDFTLTISSLQPEDFATYYCQQSHSFPLTFGGGTKVEIK
notes: as for B5
B10: PD1-IL2-R02-A08 (scFv)
scFv: QVQLVQSGAEVKKPGASVKVSCKVSGYTFTSYDINWVRQAPGQGLEWMGWINPNSGDTGYAQKFQGRVTMTRDTSTSTVYMELSSLRSEDTAVYYCARDTGLGYYYGSGDFDYWGQGTLVTVSSASGGGGSGGGGSGGGGSHASDIQMTQSPSSLSASVGDRVTITCQASQDIHNYLNWYQQKPGKAPKLLIYDVSNLETGVPSRFSGSGSGTDFTLTISSLQPEDFATYYCQQAISFPLTFGGGTKVEIK
B11: PD1-IL2-R06-E04 (scFv)
scFv: QVQLVQSGAEVKKPGASVKVSCKASGYTFTRYYIHWVRQAPGQGLEWMGWINAYNGDTNYAQKLQGRVTMTRDTSTSTVYMELSSLRSEDTAVYYCARDSYYYDSFDYWGQGTLVTVSSASGGGGSGGGGSGGGGSHASDIQMTQSPSSLSASVGDRVTITCRASQTITDWLAWYQQKPGKAPKLLIYGASNLQGGVPSRFSGSGSGTDFTLTISSLQPEDFATYYCQQYYSSWTFGQGTKVEIK
notes: as for B5

What follows are binders tested against PD-1-Fc (UniProt Q15116 25-167, limits assumed) (assay: cell-based or functional assay).
Chain of PD-1-Fc (Q15116 25-167 limits assumed): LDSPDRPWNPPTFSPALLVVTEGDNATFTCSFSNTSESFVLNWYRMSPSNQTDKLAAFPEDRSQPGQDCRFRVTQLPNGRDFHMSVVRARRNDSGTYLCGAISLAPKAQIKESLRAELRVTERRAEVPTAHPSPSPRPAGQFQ
B1 was tested, and the “EC50 of IL-2 activity, HEK-Blue IL-2 reporter cells, IgG1 coated wells (no PD-1)” value was 1.79 nM and the “EC50 of IL-2 activity, HEK-Blue IL-2 reporter cells, PD-1 coated wells” value was 0.05 nM. With B2 the “EC50 of IL-2 activity, HEK-Blue IL-2 reporter cells, IgG1 coated wells (no PD-1)” value was 0.419 nM and the “EC50 of IL-2 activity, HEK-Blue IL-2 reporter cells, PD-1 coated wells” value was 0.057 nM.

Each binder was assayed against T1, human IL-2 (human, UniProt P60568 21-153, biotin label in the IL2RB blocking assay) (assay: HTRF, IL-2:Fc-IL2RB).
T1 construct: also called biotin-labeled IL-2 (Acro Biosystems IL2-H82E4)
T1 sequence (P60568 21-153 limits assumed): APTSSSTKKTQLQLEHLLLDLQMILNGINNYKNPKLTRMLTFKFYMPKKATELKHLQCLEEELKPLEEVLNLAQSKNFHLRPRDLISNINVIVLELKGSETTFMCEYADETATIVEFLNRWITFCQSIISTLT
Text: (§1) The PURExpress scFv proteins were used directly in HTRF binding assays and cell-based functional assays.
B3 was tested, and the “IL2RB Blocking (HTRF signal)” value was 1610. In the case of B4, the “IL2RB Blocking (HTRF signal)” value is reported as 1780. With B5 the “IL2RB Blocking (HTRF signal)” value was 1070. In the case of B6, the “IL2RB Blocking (HTRF signal)” value is reported as 910. For B7, the “IL2RB Blocking (HTRF signal)” value was 1610. With B8 the “IL2RB Blocking (HTRF signal)” value was 1810. B9 was tested, and the “IL2RB Blocking (HTRF signal)” value was 1210. B10 was tested, and the “IL2RB Blocking (HTRF signal)” value was 1610. B11 was tested, and the “IL2RB Blocking (HTRF signal)” value was 1110.

The binders below were run against PD-1 (human, UniProt Q15116 25-167, limits assumed) (assay: HTRF).
Chain of PD-1 (Q15116 25-167 limits assumed): as the sequence (Q15116 25-167 limits assumed) above
Text: as §1
In the case of B3, the “PD1 Binding (HTRF signal)” value is reported as 1660. For B4, the “PD1 Binding (HTRF signal)” value was 1620. B5 was tested, and the “PD1 Binding (HTRF signal)” value was 1300. B6 was tested, and the “PD1 Binding (HTRF signal)” value was 1240. With B7 the “PD1 Binding (HTRF signal)” value was 730. For B8, the “PD1 Binding (HTRF signal)” value was 1680. B9 was tested, and the “PD1 Binding (HTRF signal)” value was 1380. B10 was tested, and the “PD1 Binding (HTRF signal)” value was 995. B11 was tested, and the “PD1 Binding (HTRF signal)” value was 50.

What follows are binders tested against T1, human IL-2 (assay: HTRF).
Text: as §1
With B3 the “IL2 Binding (HTRF signal)” value was 2490. In the case of B4, the “IL2 Binding (HTRF signal)” value is reported as 1560. For B5, the “IL2 Binding (HTRF signal)” value was 298. B6 was tested, and the “IL2 Binding (HTRF signal)” value was 2040. In the case of B7, the “IL2 Binding (HTRF signal)” value is reported as 973. For B8, the “IL2 Binding (HTRF signal)” value was 628. For B9, the “IL2 Binding (HTRF signal)” value was 293. For B10, the “IL2 Binding (HTRF signal)” value was 520. For B11, the “IL2 Binding (HTRF signal)” value was 247.
